The source of these data is patent US20020103123A1.

The target in test [1] is T1, rat Y4 receptor (rat), Q63447.
T1 chain: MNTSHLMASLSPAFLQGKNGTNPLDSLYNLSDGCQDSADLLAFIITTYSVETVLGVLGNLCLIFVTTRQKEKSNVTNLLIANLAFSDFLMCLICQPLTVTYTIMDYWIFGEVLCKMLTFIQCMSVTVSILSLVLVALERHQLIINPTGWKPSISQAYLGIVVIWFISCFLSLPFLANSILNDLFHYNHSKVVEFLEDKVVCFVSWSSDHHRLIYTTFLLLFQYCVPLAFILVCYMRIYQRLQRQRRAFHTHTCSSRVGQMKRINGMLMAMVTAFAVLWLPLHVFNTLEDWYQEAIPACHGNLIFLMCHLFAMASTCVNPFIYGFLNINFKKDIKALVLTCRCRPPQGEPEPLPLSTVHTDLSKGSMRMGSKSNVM
The test is described as follows: 125I-PYY displacement, COS-7 membranes. The note with it: remark: other sources report otherwise.

For test [2], the target named is T2, rat hypothalamic Y5 receptor (rat).
T2 sequence: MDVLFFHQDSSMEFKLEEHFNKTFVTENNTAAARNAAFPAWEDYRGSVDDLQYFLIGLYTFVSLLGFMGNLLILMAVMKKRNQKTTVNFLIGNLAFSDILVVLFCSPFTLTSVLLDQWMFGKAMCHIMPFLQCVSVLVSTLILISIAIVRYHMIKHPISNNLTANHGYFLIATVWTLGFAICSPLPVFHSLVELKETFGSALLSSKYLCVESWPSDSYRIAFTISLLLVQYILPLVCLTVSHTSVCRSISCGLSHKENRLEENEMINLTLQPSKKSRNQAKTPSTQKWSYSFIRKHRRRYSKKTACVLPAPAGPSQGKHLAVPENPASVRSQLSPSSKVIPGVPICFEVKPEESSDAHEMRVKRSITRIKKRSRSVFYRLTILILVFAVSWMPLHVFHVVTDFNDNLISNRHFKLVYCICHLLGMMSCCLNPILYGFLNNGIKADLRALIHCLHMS

Test [3] shares this target. This is another data set of the same source.
Test [4] addresses T3, rat Y2 receptor (rat), Q9ERC0.
T3 chain: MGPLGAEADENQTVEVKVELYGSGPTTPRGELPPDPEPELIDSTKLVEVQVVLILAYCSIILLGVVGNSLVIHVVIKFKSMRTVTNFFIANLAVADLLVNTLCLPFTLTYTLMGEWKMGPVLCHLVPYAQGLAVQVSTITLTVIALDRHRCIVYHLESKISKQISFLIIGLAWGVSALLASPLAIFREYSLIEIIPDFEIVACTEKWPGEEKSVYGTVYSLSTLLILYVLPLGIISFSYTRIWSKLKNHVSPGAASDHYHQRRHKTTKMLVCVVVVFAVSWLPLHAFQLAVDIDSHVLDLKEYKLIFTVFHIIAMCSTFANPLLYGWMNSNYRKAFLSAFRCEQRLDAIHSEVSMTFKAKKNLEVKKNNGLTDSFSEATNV
The test is described as follows: 125I-PYY displacement, COS-7 membranes. The note with it: remark: other sources report otherwise.

For test [5], the target named is human hippocampal Y5 receptor (human).

Ends that are not written are not given here.

Chain of human hippocampal Y5 receptor (human) (chain, as listed by the source): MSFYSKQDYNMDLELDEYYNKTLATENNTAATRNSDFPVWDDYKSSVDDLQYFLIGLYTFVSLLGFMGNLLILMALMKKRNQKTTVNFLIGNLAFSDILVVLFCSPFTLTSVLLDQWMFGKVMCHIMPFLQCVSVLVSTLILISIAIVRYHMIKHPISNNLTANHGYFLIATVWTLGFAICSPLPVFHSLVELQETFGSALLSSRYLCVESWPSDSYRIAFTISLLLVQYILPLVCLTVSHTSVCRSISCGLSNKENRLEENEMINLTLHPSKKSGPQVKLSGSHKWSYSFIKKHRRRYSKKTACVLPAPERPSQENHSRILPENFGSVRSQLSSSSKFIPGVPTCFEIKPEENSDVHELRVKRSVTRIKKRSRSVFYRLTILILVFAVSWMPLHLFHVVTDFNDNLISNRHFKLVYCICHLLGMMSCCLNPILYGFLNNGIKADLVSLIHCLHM

As a reminder, the Ki is a measure of affinity in units of concentration, obtained from inhibition or displacement. Read a high Ki as lower affinity. As to PAEDLARYYSALRHYINLITRQRY (ends and bridges not checked) [porcine NPY13-36, P01304], in test [1], the Ki was 140 nM.
For the molecule FLRF-NH2 [FLRF-amide], the inhibition of forskolin-stimulated cAMP accumulation, EC50 in test [2] is 13000 nM. The maximal suppression of cAMP relative to that produced by human NPY in test [3] was 42%.
As to APLEPMYPGDYATHEQRAQYETQLRRYINTLTRPRY [rat PP], the inhibition of forskolin-stimulated cAMP accumulation, EC50 in test [2] stood at 130 nM.
Take HYINLITRQRY (ends and bridges not checked) [porcine NPY26-36, P01304]: the Ki in test [4] is over 830 nM.
Regarding APLEPEYPGDNATPEQMAQYAAELRRYINMLTRPRY [bovine PP], the inhibition of forskolin-stimulated cAMP accumulation, EC50 in test [2] came to 5.7 nM; in test [5], 4 nM.
